Test results taken from PMC10719372, “Molecular mechanism of phospholipid transport at the bacterial outer membrane interface” (Nature Communications, 2023).

B1: OmpC (natural protein, E. coli, UniProt P06996 22-367, looked up)
chain: AEVYNKDGNKLDLYGKVDGLHYFSDNKDVDGDQTYMRLGFKGETQVTDQLTGYGQWEYQIQGNSAENENNSWTRVAFAGLKFQDVGSFDYGRNYGVVYDVTSWTDVLPEFGGDTYGSDNFMQQRGNGFATYRNTDFFGLVDGLNFAVQYQGKNGNPSGEGFTSGVTNNGRDALRQNGDGVGGSITYDYEGFGIGGAISSSKRTDAQNTAAYIGNGDRAETYTGGLKYDANNIYLAAQYTQTYNATRVGSLGWANKAQNFEAVAQYQFDFGLRPSLAYLQSKGKNLGRGYDDEDILKYVDVGATYYFNKNMSTYVDYKINLLDDNQFTRDAGINTDNIVALGLVYQF
notes: OmpC, outer membrane porin, E. coli; In the pull-down with MlaA variants some samples may have held OmpC-His (pDSW206ompC-His) in place of untagged OmpC; also called osmoporin OmpC; trimeric OmpC; source: E. coli BL21(λDE3) ΔompF::kan, over-expressed from pDSW206ompC; in DDM-solubilised lysate (pull-down) and purified with its partners (Ni-NTA, SEC)
B2: MlaA^Q205C (of the disulfide-trapped OmpC-MlaA-MlaC complex) (natural protein, E. coli, UniProt P76506 18-251, looked up)
chain: CASSGTDQQGRSDPLEGFNRTMYNFNFNVLDPYIVRPVAVAWRDYVPQPARNGLSNFTGNLEEPAVMVNYFLQGDPYQGMVHFTRFFLNTILGMGGFIDVAGMANPKLQRTEPHRFGSTLGHYGVGYGPYVQLPFYGSFTLRDDGGDMADGFYPVLSWLTWPMSVGKWTLEGIETRAQLLDSDGLLRCSSDPYIMVREAYFQRHDFIANGGELKPQENPNAQAIQDDLKDIDSE
modifications: engineered MlaA^Q205C-MlaC^V171C disulfide bond
notes: MlaA, OM lipoprotein, E. coli; also called MlaA^Cys

How the values were obtained:
[1] = biological target: the molecule itself; experiment: SEC-MALS; SEC-purified disulfide-trapped OmpC3-MlaA^Cys-MlaC^Cys-His at 3 mg/ml, Superdex 200 Increase 10/300 GL, TBS pH 8.0 with 0.025% DDM, protein-conjugate analysis
[2] = biological target: B1; experiment: cryo-EM structure; disulfide-trapped OmpC3-MlaA^Q205C-MlaC^V171C-His in MSP2N2 nanodiscs with E. coli polar lipids; 2.9 Å overall, density of MlaC limited to 5.0-7.0 Å; conditions: both partners purified
[3] = biological target: B1; experiment: SEC-MALS; SEC-purified disulfide-trapped OmpC3-MlaA^Cys-MlaC^Cys-His at 3 mg/ml, Superdex 200 Increase 10/300 GL, TBS pH 8.0 with 0.025% DDM, protein-conjugate analysis; conditions: both partners purified

| Binder | stoichiometry N [1] | stoichiometry N [2] | stoichiometry N [3] |
| --- | --- | --- | --- |
| B1 | 3 |  |  |
| B2 |  | 1 to 3 per OmpC trimer | ~2 per OmpC trimer |
